# Data taken from paper PMC12229607.
# Molecular target: human Fc gamma receptor FcγRIIIa, V158 allotype (human)
# Test: ELISA
# human Fc gamma receptor FcγRIIIa, V158 allotype (human), sequence (P08637 17-208): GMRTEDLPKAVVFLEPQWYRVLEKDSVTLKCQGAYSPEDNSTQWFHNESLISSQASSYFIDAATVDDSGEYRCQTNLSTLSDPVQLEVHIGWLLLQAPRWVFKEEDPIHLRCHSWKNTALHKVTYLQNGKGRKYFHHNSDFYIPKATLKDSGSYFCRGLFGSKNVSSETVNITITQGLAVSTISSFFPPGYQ
row,Substance,EC50 [µM]
1,G2-hinge-Fc (E. coli-derived human IgG1 hinge-Fc bearing the G2 glycoform) (domain or fragment),0.0285
2,commercial trastuzumab (antibody),0.0054
